Data: article PMC2367731 (Nucleic Acids Research, 2008)

What was measured:
[1] = target: His6-tagged H3.1/H4 complex (human, UniProt P68431;P62805); test: pull-down
[2] = target: His6-tagged H3t/H4 complex (human, UniProt Q16695;P62805); test: pull-down
[3] = target: T1, H3.1/H4 complex (His6 tags removed) (human, UniProt P68431;P62805); test: native gel or EMSA
[4] = target: T2, H3t/H4 complex (His6 tags removed) (human, UniProt Q16695;P62805); test: native gel or EMSA
[5] = target: T1, H3.1/H4 complex (His6 tags removed); test: pull-down
[6] = target: T2, H3t/H4 complex (His6 tags removed); test: pull-down

Binder | binding result [1] | binding result [2] | binding result [3] | binding result [4] | binding result [5] | binding result [6]
human Nap2, His6 tag removed (natural protein) MADHSFSDGVPSDSVEAAKNASNTEKLTDQVMQNPRVLAALQERLDNVPHTPSSYIETLPKAVKRRINALKQLQVRCAHIEAKFYEEVHDLERKYAALYQPLFDKRREFITGDVEPTDAESEWHSENEEEEKLAGDMKSKVVVTEKAAATAEEPDPKGIPEFWFTIFRNVDMLSELVQEYDEPILKHLQDIKVKFSDPGQPMSFVLEFHFEPNDYFTNSVLTKTYKMKSEPDKADPFSFEGPEIVDCDGCTIDWKKGKNVTVKTIKKKQKHKGRGTVRTITKQVPNESFFNFFNPLKASGDGESLDEDSEFTLASDFEIGHFFRERIVPRAVLYFTGEAIEDDDNFEEGEEGEEEELEGDEEGEDEDDAEINPKV | binds | binds | – | – | – | –
human Nap1 (nucleosome assembly protein 1), His6 tag removed (natural protein) MADIDNKEQSELDQDLDDVEEVEEEETGEETKLKARQLTVQMMQNPQILAALQERLDGLVETPTGYIESLPRVVKRRVNALKNLQVKCAQIEAKFYEEVHDLERKYAVLYQPLFDKRFEIINAIYEPTEEECEWKPDEEDEISEELKEKAKIEDEKKDEEKEDPKGIPEFWLTVFKNVDLLSDMVQEHDEPILKHLKDIKVKFSDAGQPMSFVLEFHFEPNEYFTNEVLTKTYRMRSEPDDSDPFSFDGPEIMGCTGCQIDWKKGKNVTLKTIKKKQKHKGRGTVRTVTKTVSNDSFFNFFAPPEVPESGDLDDDAEAILAADFEIGHFLRERIIPRSVLYFTGEAIEDDDDDYDEEGEEADEEGEEEGDEENDPDYDPKKDQNPAECKQQ | binds | binds | binds | binds | – | –
His6-tagged human Nap2 (natural protein) MADHSFSDGVPSDSVEAAKNASNTEKLTDQVMQNPRVLAALQERLDNVPHTPSSYIETLPKAVKRRINALKQLQVRCAHIEAKFYEEVHDLERKYAALYQPLFDKRREFITGDVEPTDAESEWHSENEEEEKLAGDMKSKVVVTEKAAATAEEPDPKGIPEFWFTIFRNVDMLSELVQEYDEPILKHLQDIKVKFSDPGQPMSFVLEFHFEPNDYFTNSVLTKTYKMKSEPDKADPFSFEGPEIVDCDGCTIDWKKGKNVTVKTIKKKQKHKGRGTVRTITKQVPNESFFNFFNPLKASGDGESLDEDSEFTLASDFEIGHFFRERIVPRAVLYFTGEAIEDDDNFEEGEEGEEEELEGDEEGEDEDDAEINPKV | – | – | – | – | binds | binds
His6-tagged human Nap1 (natural protein) MADIDNKEQSELDQDLDDVEEVEEEETGEETKLKARQLTVQMMQNPQILAALQERLDGLVETPTGYIESLPRVVKRRVNALKNLQVKCAQIEAKFYEEVHDLERKYAVLYQPLFDKRFEIINAIYEPTEEECEWKPDEEDEISEELKEKAKIEDEKKDEEKEDPKGIPEFWLTVFKNVDLLSDMVQEHDEPILKHLKDIKVKFSDAGQPMSFVLEFHFEPNEYFTNEVLTKTYRMRSEPDDSDPFSFDGPEIMGCTGCQIDWKKGKNVTLKTIKKKQKHKGRGTVRTVTKTVSNDSFFNFFAPPEVPESGDLDDDAEAILAADFEIGHFLRERIIPRSVLYFTGEAIEDDDDDYDEEGEEADEEGEEEGDEENDPDYDPKKDQNPAECKQQ | – | – | – | – | binds | binds
